According to PMC5454113:

Columns and labels:
activated factor X (FXa) [1] = molecular target: activated factor X (FXa) (UniProt P00742); test: enzyme inhibition kinetics (chromogenic substrate); as a1, with 100 nM protein S, no FV
activated factor X (FXa) [2] = molecular target: activated factor X (FXa) (UniProt P00742); test: enzyme inhibition kinetics (chromogenic substrate); FXa 0.3 nM, TFPI 0–16 nM, S-2765 200 uM, 25 uM phospholipids (DOPC/DOPS/DOPE 60:20:20), 5 mM CaCl2, 25 °C, 60 min; no protein S, no FV; Ki = encounter complex, Ki* = overall dissociation constant
activated factor X (FXa) [3] = molecular target: activated factor X (FXa) (UniProt P00742); test: enzyme inhibition kinetics (chromogenic substrate); as a1, with 30 nM recombinant FV, no protein S
activated factor X (FXa) [4] = molecular target: activated factor X (FXa) (UniProt P00742); test: enzyme inhibition kinetics (chromogenic substrate); as a1, with 30 nM recombinant FV and 100 nM protein S

UniProt P00742, sequence (P00742 41-179, chain 1 of 2): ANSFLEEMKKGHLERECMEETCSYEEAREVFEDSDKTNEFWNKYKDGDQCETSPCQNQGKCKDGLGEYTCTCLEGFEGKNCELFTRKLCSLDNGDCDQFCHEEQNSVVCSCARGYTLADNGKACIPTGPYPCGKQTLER
UniProt P00742, sequence (P00742 235-488, chain 2 of 2): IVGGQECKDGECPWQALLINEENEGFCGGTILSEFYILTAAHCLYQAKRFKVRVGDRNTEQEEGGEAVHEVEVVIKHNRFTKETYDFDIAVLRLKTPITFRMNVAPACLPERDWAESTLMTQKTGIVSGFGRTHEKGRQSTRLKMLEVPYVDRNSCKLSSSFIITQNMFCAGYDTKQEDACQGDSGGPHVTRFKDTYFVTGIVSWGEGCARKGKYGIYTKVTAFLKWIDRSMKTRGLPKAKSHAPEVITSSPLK

- Ki (activated factor X (FXa) [1]): 0.047 nM
- Ki of the encounter complex (first step) (activated factor X (FXa) [1]): 4.57 nM
- Ki (activated factor X (FXa) [2]): 0.05 nM
- Ki of the encounter complex (first step) (activated factor X (FXa) [2]): 5.69 nM
- Ki (activated factor X (FXa) [3]): 0.31 nM
- Ki of the encounter complex (first step) (activated factor X (FXa) [3]): 7.41 nM
- Ki (activated factor X (FXa) [4]): 0.028 nM
- Ki of the encounter complex (first step) (activated factor X (FXa) [4]): 1.61 nM
Substance: TFPI ΔCT (aa 1–249) (domain or fragment)
